Key:
[1] = target: His6 Myosin Va GTD (1,464–1,855) (UniProt Q9Y4I1); test: MST; Monolith NT.115; RED-NHS labelled His6-MyoVa GTD fixed at 100 nM, 16 serial dilutions of the unlabelled Rab/Mst3 reaction mixture (+ATP phosphorylated 2 h at 27°C; -ATP control); 50 mM Hepes pH 7.5, 5% glycerol, 150 mM NaCl, 5 mM MgCl2, 0.1 mM TCEP, GTP, 6 μM BSA, 0.01% Tween-20; 30 min in the dark at 25°C; Mst3 kinase present
[2] = target: LRRK2-phosphorylated Rab10 (pRab10) (human (endogenous in HEK293T)) (UniProt P61026)
[3] = target: T1, His6 Myosin Va GTD (1,464–1,855) (UniProt Q9Y4I1 1464-1855, labeled with RED-NHS 2nd Generation (amine reactive) dye (NT-647)); test: MST; Monolith NT.115; RED-NHS labelled His6-MyoVa GTD fixed at 100 nM, 16 serial dilutions of the unlabelled Rab/Mst3 reaction mixture (+ATP phosphorylated 2 h at 27°C; -ATP control); 50 mM Hepes pH 7.5, 5% glycerol, 150 mM NaCl, 5 mM MgCl2, 0.1 mM TCEP, GTP, 6 μM BSA, 0.01% Tween-20; 30 min in the dark at 25°C; Mst3 kinase present; settings: both partners purified
T1 construct: Myosin Va globular tail domain, residues 1,464-1,855; bacterial expression plasmid a gift from Amir Khan; purified as described by Berndsen et al 2019 and Waschbüsch et al 2020; the limits differ from those of the mCherry construct m3 (1,421-1,880, mouse); also called His6-MyoVa GTD; purified MyoVa GTD; source: E. coli BL21 (DE3 pLys), purified (Ni-NTA, Superdex-75)

[4] = target: T2, His6 Myosin Va GTD (1,464–1,855) (UniProt Q9Y4I1 1464-1855, labeled with RED-NHS 2nd Generation (amine reactive) dye (NT-647)); test: MST; Rab8A phosphorylated by Mst3
T2 chain: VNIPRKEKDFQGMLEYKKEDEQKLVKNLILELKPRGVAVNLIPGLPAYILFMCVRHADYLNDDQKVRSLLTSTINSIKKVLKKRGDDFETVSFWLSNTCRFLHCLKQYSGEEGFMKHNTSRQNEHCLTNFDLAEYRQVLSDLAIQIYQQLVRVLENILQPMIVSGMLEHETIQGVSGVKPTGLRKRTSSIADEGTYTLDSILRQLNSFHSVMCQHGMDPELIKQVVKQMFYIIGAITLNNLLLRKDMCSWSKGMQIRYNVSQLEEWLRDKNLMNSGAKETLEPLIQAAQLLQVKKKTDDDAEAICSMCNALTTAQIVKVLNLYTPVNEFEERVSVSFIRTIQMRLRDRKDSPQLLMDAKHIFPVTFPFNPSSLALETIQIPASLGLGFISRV

[5] = target: T2, His6 Myosin Va GTD (1,464–1,855); test: MST; unphosphorylated Rab10
[6] = target: T2, His6 Myosin Va GTD (1,464–1,855); test: MST; unphosphorylated Rab8A

Molecule: His6 Rab10-Q63L (1–181) phosphorylated in vitro by Mst3 (from UniProt P61026 1-181) (domain or fragment)
- Kd [1]: 0.475 µM

Molecule: MyoVa GTD-mCherry (1,421–1,880) (domain or fragment)
- FLIP in HeLa cells expressing R1441G LRRK2: half-time of fluorescence loss of GTD-mCherry over the region of interest against adjacent cytoplasm; dependent on kinase activity [2]: 107 s

Molecule: full-length MyoVa mCherry (natural protein)
- FLIP in HeLa cells expressing R1441G LRRK2: half-time of fluorescence loss of MyoVa mCherry over the pericentriolar region of interest (adjacent cytoplasm t1/2 = 83 s; retention ameliorated by MLi-2) [2]: 4.53 min

B1: His6 Rab8A Q63L phosphorylated in vitro by Mst3 (natural protein)
chain: MAKTYDYLFKLLLIGDSGVGKTCVLFRFSEDAFNSTFISTIGIDFKIRTIELDGKRIKLQIWDTAGLERFRTITTAYYRGAMGIMLVYDITNEKSFDNIRNWIRNIEEHASADVEKMILGNKCDVNDKRQVSKERGEKLALDYGIKFMETSAKANINVENAFFTLARDIKAKMDKKLEGNSPQGSNQGVKITPDQQKRSSFFRCVLL
modifications: phosphorylated by Mst3 (residue not given)
- fold weaker binding than pRab10 [3]: ~14 fold
- Kd [4]: 6.6 µM

B2: His6 Rab10-Q63L (1–181), non-phosphorylated (domain or fragment)
chain: MAKKTYDLLFKLLLIGDSGVGKTCVLFRFSDDAFNTTFISTIGIDFKIKTVELQGKKIKLQIWDTAGLERFHTITTSYYRGAMGIMLVYDITNGKSFENISKWLRNIDEHANEDVERMLLGNKCDMDDKRVVPKGKGEQIAREHGIRFFETSAKANINIEKAFLTLAEDILRKTPVKEPNS
- Kd [5]: > 18 µM

B3: His6 Rab8A Q63L, non-phosphorylated (natural protein)
chain: B1 chain
- Kd [6]: > 29 µM

Source: publication PMC7994366, “LRRK2-phosphorylated Rab10 sequesters Myosin Va with RILPL2 during ciliogenesis blockade” (Life Science Alliance, 2021)
